From PMC7969019 (Nucleic Acids Research, 2020)
Where no end group is shown, it is not given here. [ ]: non-standard residue; d: D form. pT = C[C@@H](OP(=O)(O)O)[C@H](N)C(=O)O; pS = N[C@@H](COP(=O)(O)O)C(=O)O

T1: human TFIIH p62 residues 1-158 (tandem PH and BSD1 domains) (human, UniProt P32780 1-158)
T1 sequence (looked up): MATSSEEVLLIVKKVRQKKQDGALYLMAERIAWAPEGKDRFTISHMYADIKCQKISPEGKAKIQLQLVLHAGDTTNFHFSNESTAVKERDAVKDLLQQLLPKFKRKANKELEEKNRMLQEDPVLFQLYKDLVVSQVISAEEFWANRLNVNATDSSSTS

B1: XPC (residues 124-142) (peptide, UniProt Q01831 124-142, looked up)
peptide: EEEEESENDWEEVEELSEP
B2: UVSSA (residues 399-419) (peptide, UniProt Q2YD98 399-419, looked up)
peptide: AEEDEDDEDFVEVPEKEGYEP
B3: TFIIEα (residues 378-439), acidic domain (domain or fragment, UniProt P29083 378-439, looked up)
chain: EEDEEEDDEFEEVADDPIVMVAGRPFSYSEVSQRPELVAQMTPEEKEAYIAMGQRMFEDLFE
B4: Ser46- and Thr55-phosphorylated p53 (residues 41-62) (peptide, UniProt P04637 41-62, looked up)
peptide: DDLML[pS]PDDIEQWF[pT]EDPGPDE

biological target: T1, human TFIIH p62 residues 1-158 (tandem …); test: NMR titration

Row | binding result | Binder
1 | binds | B1
2 | binds | B2
3 | binds | B3
4 | binds | B4
